Anthrax lethal factor (Product #169, List Biological Laboratories, Inc)
Substrate RFUs after 5 hrs digest, LF 10 pg/ml in 1:10 diluted plasma (LBL 10097): 224 RFU
Substrate RFUs after 5 hrs digest, LF 20 pg/ml in 1:10 diluted plasma (LBL 10097): 222 RFU
Substrate RFUs after 5 hrs digest, LF 50 pg/ml in 1:10 diluted plasma (LBL 10097): 249 RFU
Substrate RFUs after 5 hrs digest, LF 100 pg/ml in 1:10 diluted plasma (LBL 10097): 242 RFU
Substrate RFUs after 5 hrs digest, LF 200 pg/ml in 1:10 diluted plasma (LBL 10097): 256 RFU
Substrate RFUs after 5 hrs digest, LF 500 pg/ml in 1:10 diluted plasma (LBL 10097): 301 RFU
Substrate RFUs after 5 hrs digest, LF 1000 pg/ml in 1:10 diluted plasma (LBL 10097): 399 RFU
Substrate RFUs after 24 hrs digest, LF 10 pg/ml in 1:10 diluted plasma (LBL 10097): 227 RFU
Substrate RFUs after 24 hrs digest, LF 20 pg/ml in 1:10 diluted plasma (LBL 10097): 223 RFU
Substrate RFUs after 24 hrs digest, LF 50 pg/ml in 1:10 diluted plasma (LBL 10097): 245 RFU
Substrate RFUs after 24 hrs digest, LF 100 pg/ml in 1:10 diluted plasma (LBL 10097): 258 RFU
Substrate RFUs after 24 hrs digest, LF 200 pg/ml in 1:10 diluted plasma (LBL 10097): 286 RFU
Substrate RFUs after 24 hrs digest, LF 500 pg/ml in 1:10 diluted plasma (LBL 10097): 379 RFU
Substrate RFUs after 24 hrs digest, LF 1000 pg/ml in 1:10 diluted plasma (LBL 10097): 559 RFU
Peak area Average, 2 hour digest, LF 5 pg/ml plasma (LBL 10081): 9150 peak area
Peak area Average, 2 hour digest, LF 10 pg/ml plasma (LBL 10081): 10300 peak area
Peak area Average, 2 hour digest, LF 20 pg/ml plasma (LBL 10081): 15900 peak area
Peak area Average, 2 hour digest, LF 50 pg/ml plasma (LBL 10081): 33700 peak area
Peak area Average, 3.5 hour digest, LF 5 pg/ml plasma (LBL 10081): 12300 peak area
Peak area Average, 3.5 hour digest, LF 10 pg/ml plasma (LBL 10081): 15900 peak area
Peak area Average, 3.5 hour digest, LF 20 pg/ml plasma (LBL 10081): 24200 peak area
Peak area Average, 3.5 hour digest, LF 50 pg/ml plasma (LBL 10081): 49100 peak area
Peak area Average, 5 hour digest, LF 5 pg/ml plasma (LBL 10081): 15000 peak area
Peak area Average, 5 hour digest, LF 10 pg/ml plasma (LBL 10081): 22300 peak area
Peak area Average, 5 hour digest, LF 20 pg/ml plasma (LBL 10081): 32900 peak area
Peak area Average, 5 hour digest, LF 50 pg/ml plasma (LBL 10081): 66700 peak area
Peak area Average, overnight digest (RT), LF 5 pg/ml plasma (LBL 10081): 26900 peak area
Peak area Average, overnight digest (RT), LF 10 pg/ml plasma (LBL 10081): 36200 peak area
Peak area Average, overnight digest (RT), LF 20 pg/ml plasma (LBL 10081): 57900 peak area
Peak area Average, overnight digest (RT), LF 50 pg/ml plasma (LBL 10081): 130000 peak area
Peak area, 2 hour digest, LF 5 pg/ml plasma, rep 1 (LBL 10081): 9410 peak area
Peak area, 2 hour digest, LF 5 pg/ml plasma, rep 2 (LBL 10081): 8890 peak area
Peak area, 2 hour digest, LF 10 pg/ml plasma, rep 1 (LBL 10081): 10700 peak area
Peak area, 2 hour digest, LF 10 pg/ml plasma, rep 2 (LBL 10081): 9970 peak area
Peak area, 2 hour digest, LF 20 pg/ml plasma, rep 1 (LBL 10081): 16900 peak area
Peak area, 2 hour digest, LF 20 pg/ml plasma, rep 2 (LBL 10081): 14900 peak area
Peak area, 2 hour digest, LF 50 pg/ml plasma, rep 1 (LBL 10081): 33700 peak area
Peak area, 2 hour digest, LF 50 pg/ml plasma, rep 2 (LBL 10081): 33700 peak area
Peak area, 3.5 hour digest, LF 5 pg/ml plasma, rep 1 (LBL 10081): 11500 peak area
Peak area, 3.5 hour digest, LF 5 pg/ml plasma, rep 2 (LBL 10081): 13200 peak area
Peak area, 3.5 hour digest, LF 10 pg/ml plasma, rep 1 (LBL 10081): 16500 peak area
Peak area, 3.5 hour digest, LF 10 pg/ml plasma, rep 2 (LBL 10081): 15300 peak area
Peak area, 3.5 hour digest, LF 20 pg/ml plasma, rep 1 (LBL 10081): 24000 peak area
Peak area, 3.5 hour digest, LF 20 pg/ml plasma, rep 2 (LBL 10081): 24300 peak area
Peak area, 3.5 hour digest, LF 50 pg/ml plasma, rep 1 (LBL 10081): 49700 peak area
Peak area, 3.5 hour digest, LF 50 pg/ml plasma, rep 2 (LBL 10081): 48400 peak area
Peak area, 5 hour digest, LF 5 pg/ml plasma, rep 1 (LBL 10081): 14800 peak area
Peak area, 5 hour digest, LF 5 pg/ml plasma, rep 2 (LBL 10081): 15100 peak area
Peak area, 5 hour digest, LF 10 pg/ml plasma, rep 1 (LBL 10081): 22200 peak area
Peak area, 5 hour digest, LF 10 pg/ml plasma, rep 2 (LBL 10081): 22400 peak area
Peak area, 5 hour digest, LF 20 pg/ml plasma, rep 1 (LBL 10081): 31600 peak area
Peak area, 5 hour digest, LF 20 pg/ml plasma, rep 2 (LBL 10081): 34200 peak area
Peak area, 5 hour digest, LF 50 pg/ml plasma, rep 1 (LBL 10081): 67200 peak area
Peak area, 5 hour digest, LF 50 pg/ml plasma, rep 2 (LBL 10081): 66100 peak area
Peak area, overnight digest (RT), LF 5 pg/ml plasma, rep 1 (LBL 10081): 28500 peak area
Peak area, overnight digest (RT), LF 5 pg/ml plasma, rep 2 (LBL 10081): 25300 peak area
Peak area, overnight digest (RT), LF 10 pg/ml plasma, rep 1 (LBL 10081): 36500 peak area
Peak area, overnight digest (RT), LF 10 pg/ml plasma, rep 2 (LBL 10081): 36000 peak area
Peak area, overnight digest (RT), LF 20 pg/ml plasma, rep 1 (LBL 10081): 58200 peak area
Peak area, overnight digest (RT), LF 20 pg/ml plasma, rep 2 (LBL 10081): 57600 peak area
Peak area, overnight digest (RT), LF 50 pg/ml plasma, rep 1 (LBL 10081): 136000 peak area
Peak area, overnight digest (RT), LF 50 pg/ml plasma, rep 2 (LBL 10081): 124000 peak area
Slope (Peak Area/pg LF), 2 hr digest (Peak Area/pg LF) (LBL 10081): 553
Slope (Peak Area/pg LF), 3.5 hr digest (Peak Area/pg LF) (LBL 10081): 811
Slope (Peak Area/pg LF), 5 hr digest (Peak Area/pg LF) (LBL 10081): 1130
Slope (Peak Area/pg LF), Overnight digest (RT) (Peak Area/pg LF) (LBL 10081): 2280
Substrate RFUs after 5 hrs digest, LF 10 pg/ml in 1:10 diluted plasma (LBL 10081): 140 RFU
Substrate RFUs after 5 hrs digest, LF 20 pg/ml in 1:10 diluted plasma (LBL 10081): 137 RFU
Substrate RFUs after 5 hrs digest, LF 50 pg/ml in 1:10 diluted plasma (LBL 10081): 137 RFU
Substrate RFUs after 5 hrs digest, LF 100 pg/ml in 1:10 diluted plasma (LBL 10081): 141 RFU
Substrate RFUs after 5 hrs digest, LF 200 pg/ml in 1:10 diluted plasma (LBL 10081): 155 RFU
Substrate RFUs after 5 hrs digest, LF 500 pg/ml in 1:10 diluted plasma (LBL 10081): 190 RFU
Substrate RFUs after 5 hrs digest, LF 1000 pg/ml in 1:10 diluted plasma (LBL 10081): 256 RFU
Substrate RFUs after 24 hrs digest, LF 10 pg/ml in 1:10 diluted plasma (LBL 10081): 147 RFU
Substrate RFUs after 24 hrs digest, LF 20 pg/ml in 1:10 diluted plasma (LBL 10081): 149 RFU
Substrate RFUs after 24 hrs digest, LF 50 pg/ml in 1:10 diluted plasma (LBL 10081): 152 RFU
Substrate RFUs after 24 hrs digest, LF 100 pg/ml in 1:10 diluted plasma (LBL 10081): 161 RFU
Substrate RFUs after 24 hrs digest, LF 200 pg/ml in 1:10 diluted plasma (LBL 10081): 186 RFU
Substrate RFUs after 24 hrs digest, LF 500 pg/ml in 1:10 diluted plasma (LBL 10081): 248 RFU
Substrate RFUs after 24 hrs digest, LF 1000 pg/ml in 1:10 diluted plasma (LBL 10081): 354 RFU
Substrate RFUs, 1 hour, LF 10 pg/ml (LBL 10081): 89 RFU
Substrate RFUs, 1 hour, LF 20 pg/ml (LBL 10081): 87 RFU
Substrate RFUs, 1 hour, LF 50 pg/ml (LBL 10081): 88 RFU
Substrate RFUs, 1 hour, LF 100 pg/ml (LBL 10081): 88 RFU
Substrate RFUs, 1 hour, LF 200 pg/ml (LBL 10081): 92 RFU
Substrate RFUs, 1 hour, LF 500 pg/ml (LBL 10081): 97 RFU
Substrate RFUs, 1 hour, LF 1000 pg/ml (LBL 10081): 114 RFU
Substrate RFUs, 2 hours, LF 10 pg/ml (LBL 10081): 94 RFU
Substrate RFUs, 2 hours, LF 20 pg/ml (LBL 10081): 93 RFU
Substrate RFUs, 2 hours, LF 50 pg/ml (LBL 10081): 95 RFU
Substrate RFUs, 2 hours, LF 100 pg/ml (LBL 10081): 96 RFU
Substrate RFUs, 2 hours, LF 200 pg/ml (LBL 10081): 101 RFU
Substrate RFUs, 2 hours, LF 500 pg/ml (LBL 10081): 116 RFU
Substrate RFUs, 2 hours, LF 1000 pg/ml (LBL 10081): 148 RFU
Substrate RFUs, 3 hours, LF 10 pg/ml (LBL 10081): 98 RFU
Substrate RFUs, 3 hours, LF 20 pg/ml (LBL 10081): 99 RFU
Substrate RFUs, 3 hours, LF 50 pg/ml (LBL 10081): 100 RFU
Substrate RFUs, 3 hours, LF 100 pg/ml (LBL 10081): 103 RFU
Substrate RFUs, 3 hours, LF 200 pg/ml (LBL 10081): 111 RFU
Substrate RFUs, 3 hours, LF 500 pg/ml (LBL 10081): 131 RFU
Substrate RFUs, 3 hours, LF 1000 pg/ml (LBL 10081): 177 RFU
Substrate RFUs, 4 hours, LF 10 pg/ml (LBL 10081): 100 RFU
Substrate RFUs, 4 hours, LF 20 pg/ml (LBL 10081): 99 RFU
Substrate RFUs, 4 hours, LF 50 pg/ml (LBL 10081): 102 RFU
Substrate RFUs, 4 hours, LF 100 pg/ml (LBL 10081): 105 RFU
Substrate RFUs, 4 hours, LF 200 pg/ml (LBL 10081): 115 RFU
Substrate RFUs, 4 hours, LF 500 pg/ml (LBL 10081): 142 RFU
Substrate RFUs, 4 hours, LF 1000 pg/ml (LBL 10081): 202 RFU
Substrate RFUs, 5 hours, LF 10 pg/ml (LBL 10081): 103 RFU
Substrate RFUs, 5 hours, LF 20 pg/ml (LBL 10081): 102 RFU
Substrate RFUs, 5 hours, LF 50 pg/ml (LBL 10081): 106 RFU
Substrate RFUs, 5 hours, LF 100 pg/ml (LBL 10081): 111 RFU
Substrate RFUs, 5 hours, LF 200 pg/ml (LBL 10081): 125 RFU
Substrate RFUs, 5 hours, LF 500 pg/ml (LBL 10081): 157 RFU
Substrate RFUs, 5 hours, LF 1000 pg/ml (LBL 10081): 224 RFU

Reference: US20170114338
